Non-standard residues stand in square brackets, D forms with d. NMeF = CN[C@@H](Cc1ccccc1)C(=O)O; NMeL = CN[C@@H](CC(C)C)C(=O)O; NMeV = CN[C@H](C(=O)O)C(C)C; Nle = CCCC[C@H](N)C(=O)O

We go through 6 molecules from patent US20250161408A1, “PEPTIDIC INHIBITORS OF AMYLOID SELF- AND CROSS-ASSEMBLY” (TECHNISCHE UNIVERSITÄT MÜNCHEN, priority 2022, published 2025).

The target of assay [1] is islet amyloid polypeptide (IAPP) (human) (UniProt P10997).
The target of assay [2] is Aβ42 (Homo sapiens (Human)) (UniProt P05067).

Chain of islet amyloid polypeptide (IAPP) (human) (P10997 34-70): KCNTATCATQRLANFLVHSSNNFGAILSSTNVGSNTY

B1: L3-LF (peptide)
peptide: H-QK[NMeL]V[NMeF]FAEDLLLNKGAIIGL[Nle]VGGVV-OH
SMILES: CCCC[C@H](NC(=O)[C@H](CC(C)C)NC(=O)CNC(=O)[C@@H](NC(=O)[C@@H](NC(=O)[C@H](C)NC(=O)CNC(=O)[C@H](CCCCN)NC(=O)[C@H](CC(N)=O)NC(=O)[C@H](CC(C)C)NC(=O)[C@H](CC(C)C)NC(=O)[C@H](CC(C)C)NC(=O)[C@H](CC(=O)O)NC(=O)[C@H](CCC(=O)O)NC(=O)[C@H](C)NC(=O)[C@H](Cc1ccccc1)NC(=O)[C@H](Cc1ccccc1)N(C)C(=O)[C@@H](NC(=O)[C@H](CC(C)C)N(C)C(=O)[C@H](CCCCN)NC(=O)[C@@H](N)CCC(N)=O)C(C)C)[C@@H](C)CC)[C@@H](C)CC)C(=O)N[C@H](C(=O)NCC(=O)NCC(=O)N[C@H](C(=O)N[C@H](C(=O)O)C(C)C)C(C)C)C(C)C
In turn, B1 registered an IC50 of inhibitory effect on IAPP-mediated cell damage (MTT reduction, RIN5fm cells) in assay [1] of 133 nM.

B2: F3-VF (peptide)
peptide: H-QKL[NMeV]F[NMeF]AEDFFFNKGAIIGL[Nle]VGGVV-OH
SMILES: CCCC[C@H](NC(=O)[C@H](CC(C)C)NC(=O)CNC(=O)[C@@H](NC(=O)[C@@H](NC(=O)[C@H](C)NC(=O)CNC(=O)[C@H](CCCCN)NC(=O)[C@H](CC(N)=O)NC(=O)[C@H](Cc1ccccc1)NC(=O)[C@H](Cc1ccccc1)NC(=O)[C@H](Cc1ccccc1)NC(=O)[C@H](CC(=O)O)NC(=O)[C@H](CCC(=O)O)NC(=O)[C@H](C)NC(=O)[C@H](Cc1ccccc1)N(C)C(=O)[C@H](Cc1ccccc1)NC(=O)[C@H](C(C)C)N(C)C(=O)[C@H](CC(C)C)NC(=O)[C@H](CCCCN)NC(=O)[C@@H](N)CCC(N)=O)[C@@H](C)CC)[C@@H](C)CC)C(=O)N[C@H](C(=O)NCC(=O)NCC(=O)N[C@H](C(=O)N[C@H](C(=O)O)C(C)C)C(C)C)C(C)C
Consider B2, for which the IC50 of inhibitory effect on Aβ42-mediated cell damage (MTT reduction, PC12 cells) in assay [2] was determined as 1030 nM. This molecule also showed an IC50 of inhibitory effect on IAPP-mediated cell damage (MTT reduction, RIN5fm cells) in assay [1] of 78.5 nM.

B3: Nle3-VF (peptide)
peptide: H-QKL[NMeV]F[NMeF]AED[Nle][Nle][Nle]NKGAIIGL[Nle]VGGVV-OH
SMILES: CCCC[C@H](NC(=O)[C@H](CC(=O)O)NC(=O)[C@H](CCC(=O)O)NC(=O)[C@H](C)NC(=O)[C@H](Cc1ccccc1)N(C)C(=O)[C@H](Cc1ccccc1)NC(=O)[C@H](C(C)C)N(C)C(=O)[C@H](CC(C)C)NC(=O)[C@H](CCCCN)NC(=O)[C@@H](N)CCC(N)=O)C(=O)N[C@@H](CCCC)C(=O)N[C@@H](CCCC)C(=O)N[C@@H](CC(N)=O)C(=O)N[C@@H](CCCCN)C(=O)NCC(=O)N[C@@H](C)C(=O)N[C@H](C(=O)N[C@H](C(=O)NCC(=O)N[C@@H](CC(C)C)C(=O)N[C@@H](CCCC)C(=O)N[C@H](C(=O)NCC(=O)NCC(=O)N[C@H](C(=O)N[C@H](C(=O)O)C(C)C)C(C)C)C(C)C)[C@@H](C)CC)[C@@H](C)CC
For the molecule B3, the IC50 of inhibitory effect on Aβ42-mediated cell damage (MTT reduction, PC12 cells) in assay [2] is 367 nM. The IC50 of inhibitory effect on IAPP-mediated cell damage (MTT reduction, RIN5fm cells) in assay [1] is 65 nM.

B4: L3-VF (peptide)
peptide: H-QKL[NMeV]F[NMeF]AEDLLLNKGAIIGL[Nle]VGGVV-OH
SMILES: CCCC[C@H](NC(=O)[C@H](CC(C)C)NC(=O)CNC(=O)[C@@H](NC(=O)[C@@H](NC(=O)[C@H](C)NC(=O)CNC(=O)[C@H](CCCCN)NC(=O)[C@H](CC(N)=O)NC(=O)[C@H](CC(C)C)NC(=O)[C@H](CC(C)C)NC(=O)[C@H](CC(C)C)NC(=O)[C@H](CC(=O)O)NC(=O)[C@H](CCC(=O)O)NC(=O)[C@H](C)NC(=O)[C@H](Cc1ccccc1)N(C)C(=O)[C@H](Cc1ccccc1)NC(=O)[C@H](C(C)C)N(C)C(=O)[C@H](CC(C)C)NC(=O)[C@H](CCCCN)NC(=O)[C@@H](N)CCC(N)=O)[C@@H](C)CC)[C@@H](C)CC)C(=O)N[C@H](C(=O)NCC(=O)NCC(=O)N[C@H](C(=O)N[C@H](C(=O)O)C(C)C)C(C)C)C(C)C
In turn, B4 showed an IC50 of inhibitory effect on Aβ42-mediated cell damage (MTT reduction, PC12 cells) in assay [2] of 261 nM. The IC50 of inhibitory effect on IAPP-mediated cell damage (MTT reduction, RIN5fm cells) in assay [1] amounted to 112 nM.

B5: F3-LF (peptide)
peptide: H-QK[NMeL]V[NMeF]FAEDFFFNKGAIIGL[Nle]VGGVV-OH
SMILES: CCCC[C@H](NC(=O)[C@H](CC(C)C)NC(=O)CNC(=O)[C@@H](NC(=O)[C@@H](NC(=O)[C@H](C)NC(=O)CNC(=O)[C@H](CCCCN)NC(=O)[C@H](CC(N)=O)NC(=O)[C@H](Cc1ccccc1)NC(=O)[C@H](Cc1ccccc1)NC(=O)[C@H](Cc1ccccc1)NC(=O)[C@H](CC(=O)O)NC(=O)[C@H](CCC(=O)O)NC(=O)[C@H](C)NC(=O)[C@H](Cc1ccccc1)NC(=O)[C@H](Cc1ccccc1)N(C)C(=O)[C@@H](NC(=O)[C@H](CC(C)C)N(C)C(=O)[C@H](CCCCN)NC(=O)[C@@H](N)CCC(N)=O)C(C)C)[C@@H](C)CC)[C@@H](C)CC)C(=O)N[C@H](C(=O)NCC(=O)NCC(=O)N[C@H](C(=O)N[C@H](C(=O)O)C(C)C)C(C)C)C(C)C
B5 showed an IC50 of inhibitory effect on Aβ42-mediated cell damage (MTT reduction, PC12 cells) in assay [2] of 262 nM. Besides, the IC50 of inhibitory effect on IAPP-mediated cell damage (MTT reduction, RIN5fm cells) in assay [1] was determined as 41.7 nM.

B6: Nle3-LF (peptide)
peptide: H-QK[NMeL]V[NMeF]FAED[Nle][Nle][Nle]NKGAIIGL[Nle]VGGVV-OH
SMILES: CCCC[C@H](NC(=O)[C@H](CC(=O)O)NC(=O)[C@H](CCC(=O)O)NC(=O)[C@H](C)NC(=O)[C@H](Cc1ccccc1)NC(=O)[C@H](Cc1ccccc1)N(C)C(=O)[C@@H](NC(=O)[C@H](CC(C)C)N(C)C(=O)[C@H](CCCCN)NC(=O)[C@@H](N)CCC(N)=O)C(C)C)C(=O)N[C@@H](CCCC)C(=O)N[C@@H](CCCC)C(=O)N[C@@H](CC(N)=O)C(=O)N[C@@H](CCCCN)C(=O)NCC(=O)N[C@@H](C)C(=O)N[C@H](C(=O)N[C@H](C(=O)NCC(=O)N[C@@H](CC(C)C)C(=O)N[C@@H](CCCC)C(=O)N[C@H](C(=O)NCC(=O)NCC(=O)N[C@H](C(=O)N[C@H](C(=O)O)C(C)C)C(C)C)C(C)C)[C@@H](C)CC)[C@@H](C)CC
The molecule B6 yielded an IC50 of inhibitory effect on IAPP-mediated cell damage (MTT reduction, RIN5fm cells) in assay [1] of 82.1 nM.
